Literature values as cited in paper PMC3079778.

Experiments:
[1] = target: CYP1A2 (Oryctolagus cuniculus) (UniProt P00187); assay: FRET
[2] = target: CYP2B4 (Oryctolagus cuniculus) (UniProt P00178); assay: FRET
UniProt P00178, sequence (P00178 whole entry): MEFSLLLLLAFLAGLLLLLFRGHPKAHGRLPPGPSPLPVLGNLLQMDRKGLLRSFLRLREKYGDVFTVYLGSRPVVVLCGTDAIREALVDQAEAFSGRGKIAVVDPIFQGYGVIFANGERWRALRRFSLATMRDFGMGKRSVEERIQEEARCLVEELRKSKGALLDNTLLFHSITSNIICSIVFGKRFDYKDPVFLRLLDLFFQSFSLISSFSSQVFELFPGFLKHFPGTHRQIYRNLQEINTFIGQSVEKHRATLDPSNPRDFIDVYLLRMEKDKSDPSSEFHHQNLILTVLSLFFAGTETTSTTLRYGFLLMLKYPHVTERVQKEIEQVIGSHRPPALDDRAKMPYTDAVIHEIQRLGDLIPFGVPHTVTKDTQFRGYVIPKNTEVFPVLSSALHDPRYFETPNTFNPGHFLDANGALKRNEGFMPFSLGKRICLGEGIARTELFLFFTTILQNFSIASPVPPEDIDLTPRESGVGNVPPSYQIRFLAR

UniProt P00187, sequence (P00187 2-516): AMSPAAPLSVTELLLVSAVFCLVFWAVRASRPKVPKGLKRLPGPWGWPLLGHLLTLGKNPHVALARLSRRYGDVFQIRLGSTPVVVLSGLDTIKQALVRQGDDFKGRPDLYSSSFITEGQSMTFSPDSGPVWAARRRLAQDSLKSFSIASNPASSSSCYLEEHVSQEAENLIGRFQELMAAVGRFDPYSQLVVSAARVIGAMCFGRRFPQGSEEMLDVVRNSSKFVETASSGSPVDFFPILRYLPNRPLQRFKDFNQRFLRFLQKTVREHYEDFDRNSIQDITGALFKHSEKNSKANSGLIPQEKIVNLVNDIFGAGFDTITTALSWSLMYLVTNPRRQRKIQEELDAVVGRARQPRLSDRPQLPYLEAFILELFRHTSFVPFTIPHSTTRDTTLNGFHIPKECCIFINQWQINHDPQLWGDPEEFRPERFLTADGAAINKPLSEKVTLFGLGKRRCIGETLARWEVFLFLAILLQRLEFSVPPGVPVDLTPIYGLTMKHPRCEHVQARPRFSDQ

Kd [1]: 40 nM
Kd [2]: 40 nM
Substance: CPR (from UniProt P00389)
